System: peptide library, one residue held at a place counted from the Y acceptor
Assay: relative phosphorylation of the sub-library (ratio to the mean residue at this position); higher = residue favoured
Outline: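 Each value expresses phosphorylation relative to the mean randomized residue. Purified recombinant kinases acted for 90 min in 384-well plates on biotinylated Tyr-centred peptide library mixtures, with one residue fixed at one position from −5 to +5, in the presence of 50 μM ATP with γ-32P-ATP. Signals were read by phosphorimaging after capture on streptavidin membranes, then normalized per position to the sum of the 18 randomized residues (16 in the Ser/Thr-free library) and multiplied by that number.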

TYK2, construct: aa871-end, human, sequence (P29597 871-1187, looked up): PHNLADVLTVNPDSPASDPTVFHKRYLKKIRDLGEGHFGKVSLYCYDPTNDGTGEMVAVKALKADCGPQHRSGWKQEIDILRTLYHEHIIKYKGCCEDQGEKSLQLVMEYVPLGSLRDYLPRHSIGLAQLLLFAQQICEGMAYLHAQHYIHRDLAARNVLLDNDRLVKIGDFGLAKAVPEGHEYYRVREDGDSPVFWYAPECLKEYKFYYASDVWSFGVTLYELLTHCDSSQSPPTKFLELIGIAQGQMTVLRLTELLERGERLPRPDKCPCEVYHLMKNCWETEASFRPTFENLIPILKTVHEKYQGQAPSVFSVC
TYRO3, construct: aa455-end, human, sequence (Q06418 455-890, looked up): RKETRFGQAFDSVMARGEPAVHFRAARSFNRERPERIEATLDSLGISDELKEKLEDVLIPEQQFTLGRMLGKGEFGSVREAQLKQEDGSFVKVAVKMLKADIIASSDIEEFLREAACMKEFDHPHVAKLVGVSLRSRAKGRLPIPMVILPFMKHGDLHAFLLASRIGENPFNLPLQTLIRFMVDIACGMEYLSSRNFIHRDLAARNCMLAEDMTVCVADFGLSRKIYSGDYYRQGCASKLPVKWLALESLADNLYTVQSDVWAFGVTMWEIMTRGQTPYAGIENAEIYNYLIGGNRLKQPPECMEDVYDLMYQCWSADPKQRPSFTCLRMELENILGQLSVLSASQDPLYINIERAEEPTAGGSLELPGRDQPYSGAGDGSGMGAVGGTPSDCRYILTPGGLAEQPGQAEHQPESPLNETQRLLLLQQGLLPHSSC

TYK2, construct: aa871-end, human (from UniProt P29597)
relative phosphorylation
Details	at +1	at +2	at +3	at +4	at +5	at -1	at -2	at -3	at -4	at -5
A fixed	1.02	0.925	0.773	0.912	0.996	1.11	0.912	0.961	1.1	1.01
D fixed	0.279	0.572	0.536	0.798	0.795	1.27	0.902	0.975	0.881	0.949
E fixed	0.484	0.712	0.473	0.923	0.803	0.995	0.977	0.946	1.27	0.869
F fixed	1.45	1.04	1.17	1.05	1.02	1.24	0.932	1.02	1.18	1.04
G fixed	0.642	0.869	0.853	1.05	1.1	1.1	1.14	1.04	1.24	1.21
H fixed	1.3	0.828	1.07	1.15	1	1.22	1.09	1.04	0.906	0.96
I fixed	1.79	0.873	1.69	0.909	0.957	1.05	1.06	0.9	1.1	0.983
K fixed	0.544	1.29	0.806	1.24	1.1	0.573	0.956	0.959	0.86	0.995
L fixed	1.58	0.927	1.27	0.899	1.02	1.05	1.07	1.01	1.04	1.08
M fixed	1.59	1.02	1.33	1.17	0.983	0.976	0.858	0.983	0.967	0.959
N fixed	0.565	1.22	0.988	0.981	0.979	0.98	1.2	1.2	0.925	1.09
P fixed	0.381	1.04	0.756	0.756	1.22	1.18	0.892	1.17	1.1	1.09
Q fixed	0.973	1.07	0.967	1.15	0.908	0.854	1	0.981	1.02	1.03
R fixed	0.869	1.51	1.19	1.31	1.19	0.64	1.08	0.935	1.01	1.02
S fixed	0.761	1.06	0.951	0.957	1.03	0.98	0.986	0.995	0.743	0.91
T fixed	0.967	1.01	1.02	0.876	1.01	0.922	0.953	0.925	0.73	0.769
V fixed	1.42	0.823	1.16	0.857	0.882	0.949	0.983	0.963	0.786	0.875
W fixed	1.37	1.2	0.996	1.01	1	0.895	1.01	0.999	1.15	1.16
pThr fixed	0.332	0.465	0.257	0.549	0.579	0.969	0.712	0.903	0.863	0.929
pTyr fixed	1.02	0.822	0.517	0.919	0.694	1.51	0.98	1.1	1.22	1.07

TYRO3, construct: aa455-end, human (from UniProt Q06418)
relative phosphorylation
Details	at +1	at +2	at +3	at +4	at +5	at -1	at -2	at -3	at -4	at -5
A fixed	1.64	0.682	0.632	0.906	1.04	0.893	0.982	1	1.15	0.987
D fixed	0.676	0.549	0.322	0.681	0.669	0.66	0.935	1.1	1.03	1.01
E fixed	1.19	0.767	0.252	0.729	0.592	0.56	1.04	1.28	1.19	0.874
F fixed	1.07	1.28	1.44	1.11	0.885	1.23	0.653	0.819	0.883	0.866
G fixed	0.816	0.424	0.71	1.2	1.26	0.524	1.3	1.18	1.35	1.2
H fixed	1.12	0.864	1.36	1.16	0.955	1.4	1.09	1.09	0.966	1.05
I fixed	0.991	1.12	1.58	0.796	0.758	1.63	0.772	0.656	0.826	0.854
K fixed	0.534	1.1	1.03	1.18	1.39	0.719	1.14	0.998	1.04	1.16
L fixed	0.938	1.36	1.19	0.932	0.867	1.88	0.858	0.752	0.843	0.892
M fixed	1.26	1.22	1.18	1.04	0.868	1.09	0.7	0.866	0.864	0.964
N fixed	0.544	0.901	0.626	0.843	1.01	1.03	1.25	1.16	0.956	1.19
P fixed	0.412	0.657	0.864	1.18	1.62	0.821	1.09	1.27	1.3	1.19
Q fixed	1.13	0.962	0.795	1.07	0.936	0.837	1.23	1.06	1.22	1.06
R fixed	0.597	1.13	1.2	1.28	1.33	0.655	1.04	0.959	1.06	1.19
S fixed	1.25	0.799	0.718	1.01	1.06	0.849	1.28	1.2	0.866	0.977
T fixed	1.2	0.996	0.808	0.85	0.982	1.07	1.13	1.09	0.775	0.884
V fixed	1.37	1.21	1.26	0.876	0.831	1.16	0.868	0.755	0.803	0.785
W fixed	1.25	1.98	2.04	1.16	0.946	1	0.649	0.764	0.888	0.868
pThr fixed	1.04	0.889	0.217	0.396	0.43	0.664	0.826	0.977	0.895	0.854
pTyr fixed	0.911	1.28	0.324	0.56	0.399	1.06	0.954	1.2	1.12	0.96

Reference: the supplement of paper PMC11136658
